{"source": "paper PMC7044312", "about": "“NMT1 and NMT2 are lysine myristoyltransferases regulating the ARF6 GTPase cycle” (Nature Communications, 2020)", "binders": {"B1": {"name": "Ac-KVLSKIF peptide (peptide)", "peptide": "Ac-KVLSKIF", "modifications": "also: myristoyl on Lys3 side chain (residue 3 is L), formed in crystal", "notes": "derived from the N-terminus of ARF6, G2 deleted; also called acetyl-KVLSKIF; myristoyl-AcKVLSKIF; source: synthetic peptide (synthesized in-house)"}}, "target": "T1, NMT1 (115–496), NMT catalytic domain (human, UniProt P30419 115-496)", "T1 construct": "human N-myristoyltransferase 1, catalytic domain, residues 115-496; Crystallised with myristoyl-CoA; also called N-myristoyltransferase 1; source: E. coli BL21, purified (Ni-NTA, PreScission cleavage, Superdex 75)", "T1 sequence (looked up)": "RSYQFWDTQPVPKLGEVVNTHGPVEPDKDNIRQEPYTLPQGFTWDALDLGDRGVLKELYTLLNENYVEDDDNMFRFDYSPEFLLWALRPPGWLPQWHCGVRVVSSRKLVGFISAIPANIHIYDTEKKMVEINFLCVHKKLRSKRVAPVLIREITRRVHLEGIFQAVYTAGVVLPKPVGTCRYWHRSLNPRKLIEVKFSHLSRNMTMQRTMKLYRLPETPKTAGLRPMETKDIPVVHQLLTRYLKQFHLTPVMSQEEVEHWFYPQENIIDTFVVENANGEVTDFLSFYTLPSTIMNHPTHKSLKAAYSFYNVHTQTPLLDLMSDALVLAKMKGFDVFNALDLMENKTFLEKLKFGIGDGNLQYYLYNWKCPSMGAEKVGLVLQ", "experiment": "crystal structure; NMT1 7.5 mg/ml in 25 mM Tris-HCl pH 7.5, 120 mM NaCl, with 0.3 mM myristoyl-CoA and 0.3 mM AcKVLSKIF; well 18% PEG 8000, 100 mM NaCl, 100 mM sodium citrate pH 5.6, 100 mM MgCl2", "details": "both partners purified", "note": "No end group written: not given here."}
{"binder": "B1", "values": [{"measurement": "binding result", "value": "binds"}]}
